For the experiment, the target named is T1, His-tagged human FANCD2 purified from E. coli (human, UniProt Q9BXW9 1-1451).
T1 construct: human FANCD2; non-ubiquitinylated single band on a gel; also called FANCD2-His; hFANCD2; source: E. coli BL21(DE3) CodonPlus, purified (Ni-NTA, Q Sepharose, Superdex 200)
The experiment is described as follows: pull-down; FLAG-DNA2 purified on M2 FLAG beads, incubated with purified FANCD2 (1 ug/ml) at 4 C for 1 h; washed with PBS 5 times; western blot; empty M2 beads as control. The note with it: both partners purified.

The source of these data is publication PMC10516637, “FANCD2 and RAD51 recombinase directly inhibit DNA2 nuclease at stalled replication forks and FANCD2 acts as a novel RAD51 mediator in strand exchange to promote genome stability” (Nucleic Acids Research, 2023).

T1 sequence (Q9BXW9 whole entry): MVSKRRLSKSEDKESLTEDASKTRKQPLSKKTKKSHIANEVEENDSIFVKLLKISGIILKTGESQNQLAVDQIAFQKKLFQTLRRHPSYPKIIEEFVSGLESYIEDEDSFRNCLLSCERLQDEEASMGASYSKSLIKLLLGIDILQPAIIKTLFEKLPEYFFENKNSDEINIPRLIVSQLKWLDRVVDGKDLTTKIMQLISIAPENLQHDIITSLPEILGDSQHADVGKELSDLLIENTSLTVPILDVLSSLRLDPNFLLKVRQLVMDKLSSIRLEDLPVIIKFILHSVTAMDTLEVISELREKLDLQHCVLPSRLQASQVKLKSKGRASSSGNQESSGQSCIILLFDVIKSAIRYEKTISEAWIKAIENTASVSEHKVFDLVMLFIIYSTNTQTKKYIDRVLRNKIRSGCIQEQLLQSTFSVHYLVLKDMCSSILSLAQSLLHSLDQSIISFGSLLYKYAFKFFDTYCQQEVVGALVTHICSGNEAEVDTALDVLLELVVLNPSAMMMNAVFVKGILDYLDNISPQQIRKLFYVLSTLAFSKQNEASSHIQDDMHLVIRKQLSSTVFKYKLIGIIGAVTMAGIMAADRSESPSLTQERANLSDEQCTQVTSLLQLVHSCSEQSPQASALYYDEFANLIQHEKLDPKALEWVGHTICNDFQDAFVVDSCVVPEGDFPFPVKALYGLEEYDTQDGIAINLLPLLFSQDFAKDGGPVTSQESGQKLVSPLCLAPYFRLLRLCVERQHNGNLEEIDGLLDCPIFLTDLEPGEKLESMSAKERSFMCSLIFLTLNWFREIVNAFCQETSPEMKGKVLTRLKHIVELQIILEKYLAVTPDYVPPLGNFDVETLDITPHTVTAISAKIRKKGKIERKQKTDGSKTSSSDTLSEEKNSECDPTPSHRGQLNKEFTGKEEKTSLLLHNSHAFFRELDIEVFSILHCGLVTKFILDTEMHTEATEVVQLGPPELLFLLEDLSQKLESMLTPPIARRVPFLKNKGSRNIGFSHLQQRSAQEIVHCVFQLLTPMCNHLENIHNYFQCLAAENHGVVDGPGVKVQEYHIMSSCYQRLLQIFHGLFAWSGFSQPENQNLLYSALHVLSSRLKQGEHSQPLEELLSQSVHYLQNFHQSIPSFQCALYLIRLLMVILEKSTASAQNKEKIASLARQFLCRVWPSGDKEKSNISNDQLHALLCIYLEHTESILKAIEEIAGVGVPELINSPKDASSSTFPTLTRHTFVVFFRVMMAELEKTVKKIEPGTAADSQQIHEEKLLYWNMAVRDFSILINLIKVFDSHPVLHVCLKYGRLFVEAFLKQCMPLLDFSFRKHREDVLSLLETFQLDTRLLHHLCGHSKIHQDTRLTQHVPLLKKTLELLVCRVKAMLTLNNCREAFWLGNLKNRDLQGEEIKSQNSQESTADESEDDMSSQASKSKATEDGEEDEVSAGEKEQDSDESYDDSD

B1: FLAG-tagged human DNA2 from 293T cells (enzyme, UniProt P51530 1-1060, looked up)
chain: MEQLNELELLMEKSFWEEAELPAELFQKKVVASFPRTVLSTGMDNRYLVLAVNTVQNKEGNCEKRLVITASQSLENKELCILRNDWCSVPVEPGDIIHLEGDCTSDTWIIDKDFGYLILYPDMLISGTSIASSIRCMRRAVLSETFRSSDPATRQMLIGTVLHEVFQKAINNSFAPEKLQELAFQTIQEIRHLKEMYRLNLSQDEIKQEVEDYLPSFCKWAGDFMHKNTSTDFPQMQLSLPSDNSKDNSTCNIEVVKPMDIEESIWSPRFGLKGKIDVTVGVKIHRGYKTKYKIMPLELKTGKESNSIEHRSQVVLYTLLSQERRADPEAGLLLYLKTGQMYPVPANHLDKRELLKLRNQMAFSLFHRISKSATRQKTQLASLPQIIEEEKTCKYCSQIGNCALYSRAVEQQMDCSSVPIVMLPKIEEETQHLKQTHLEYFSLWCLMLTLESQSKDNKKNHQNIWLMPASEMEKSGSCIGNLIRMEHVKIVCDGQYLHNFQCKHGAIPVTNLMAGDRVIVSGEERSLFALSRGYVKEINMTTVTCLLDRNLSVLPESTLFRLDQEEKNCDIDTPLGNLSKLMENTFVSKKLRDLIIDFREPQFISYLSSVLPHDAKDTVACILKGLNKPQRQAMKKVLLSKDYTLIVGMPGTGKTTTICTLVRILYACGFSVLLTSYTHSAVDNILLKLAKFKIGFLRLGQIQKVHPAIQQFTEQEICRSKSIKSLALLEELYNSQLIVATTCMGINHPIFSRKIFDFCIVDEASQISQPICLGPLFFSRRFVLVGDHQQLPPLVLNREARALGMSESLFKRLEQNKSAVVQLTVQYRMNSKIMSLSNKLTYEGKLECGSDKVANAVINLRHFKDVKLELEFYADYSDNPWLMGVFEPNNPVCFLNTDKVPAPEQVEKGGVSNVTEAKLIVFLTSIFVKAGCSPSDIGIIAPYRQQLKIINDLLARSIGMVEVNTVDKYQGRDKSIVLVSFVRSNKDGTVGELLKDWRRLNVAITRAKHKLILLGCVPSLNCYPPLEKLLNHLNSEKLIIDLPSREHESLCHILGDFQRE
notes: human DNA2 helicase/nuclease; also called FLAG-DNA2; hDNA2; source: 293T, over-expressed, purified (M2 FLAG beads, 3x FLAG peptide elution); HEK-293T, over-expressed, in lysate
For the molecule B1, the binding result is on record as “binds”.
